B1: Gin18TALE+1 (dsDNA)
DNA 1: AGAAGGTATTTATATCCAAAACCATGGTTTACAATATAAATACCTTCT
DNA 2: AGAAGGTATTTATATTGTAAACCATGGTTTTGGATATAAATACCTTCT
B2: Gin20TALE+0 (dsDNA)
DNA 1: AGAAGGTATTTATATCCAAAACCATGGTTTACAGTATAAATACCTTCT
DNA 2: AGAAGGTATTTATACTGTAAACCATGGTTTTGGATATAAATACCTTCT

Legend:
sN-TALER V.2 = molecular target: T1, sN-TALER V.2 (synthetic); assay: cell_activity; E. coli
T1 chain: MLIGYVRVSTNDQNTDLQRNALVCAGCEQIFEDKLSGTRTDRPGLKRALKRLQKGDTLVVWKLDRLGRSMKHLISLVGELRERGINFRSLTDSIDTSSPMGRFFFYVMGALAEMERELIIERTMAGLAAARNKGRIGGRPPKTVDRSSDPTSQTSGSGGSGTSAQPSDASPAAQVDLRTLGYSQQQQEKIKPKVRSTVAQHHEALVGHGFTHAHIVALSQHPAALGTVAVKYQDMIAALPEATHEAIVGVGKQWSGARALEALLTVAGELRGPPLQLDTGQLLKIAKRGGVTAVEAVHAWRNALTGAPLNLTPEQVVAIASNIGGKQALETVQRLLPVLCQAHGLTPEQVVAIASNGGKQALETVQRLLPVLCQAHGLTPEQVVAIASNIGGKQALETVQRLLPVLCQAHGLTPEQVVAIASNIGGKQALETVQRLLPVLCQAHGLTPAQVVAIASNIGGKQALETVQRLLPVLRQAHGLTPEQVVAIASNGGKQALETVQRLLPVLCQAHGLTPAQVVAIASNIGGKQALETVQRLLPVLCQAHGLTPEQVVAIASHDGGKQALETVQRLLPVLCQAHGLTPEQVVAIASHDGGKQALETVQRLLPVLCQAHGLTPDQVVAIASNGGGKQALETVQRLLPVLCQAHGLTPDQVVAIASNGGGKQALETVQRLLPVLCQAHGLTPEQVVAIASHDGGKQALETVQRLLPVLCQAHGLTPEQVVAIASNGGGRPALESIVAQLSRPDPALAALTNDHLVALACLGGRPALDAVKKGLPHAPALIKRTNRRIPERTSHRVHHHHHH
Procedure: (§1) The co-transformed bacteria were plated on media with chloramphenicol, kanamycin, and X-gal then incubated at 37° C. for 18 to 36 hours. Control samples consisted of transformations using the reporter construct alone. Control transformants were similarly plated. The bacterial transformation protocol was either heat shock or electroporation per standard molecular biology techniques.
For each of these N-TALER chimera expression constructs, from one to three independent clones were selected for plasmid purification. These N-TALER chimera expression constructs were co-transformed with five of the N-TALER reporter constructs, as indicated in Table 15. […] In contrast to the result for pN-TALER N4.2.2, the chimera sN-TALER N4.2.2, with the same truncation point but a specific recombinase catalytic domain, reporters with 20, 24, or 40 bp of TALER central sequence length were efficiently recombined (score of 1) while reporters with 30 or 50 bp of TALER central sequence length were not recombined (score of 5). For the chimera sN-TALER N4.2, reporters with 20, 24, or 40 bp of TALER central sequence length were efficiently recombined (score of 1); the reporter with 30 bp of TALER central sequence length was poorly recombined (score of 3); and the reporter with 50 bp of TALER central sequence length was not recombined (score of 5). For the chimera pN-TALER N4.2, the recombination efficiency on the reporters tested varied from intermediate (scores of 3 and 4) to none (score of 5). […] In contrast to the result for sN-TALER N3.2, the chimera pN-TALER N3.2, with the same truncation point but a permissive recombinase catalytic domain, recombination efficiency on the reporters tested varied from efficient (scores of 1.5, 2, and 3) to none (score of 5). For both chimeras sN-TALER V.2 and pN-TALER V.2, there was efficient recombination (scores of 1, 1.5, and 2) of the 5 N-TALER reporter constructs tested.

pN-TALER IV-12 = molecular target: T2, pN-TALER IV-12 (synthetic); assay: cell_activity; E. coli
T2 chain: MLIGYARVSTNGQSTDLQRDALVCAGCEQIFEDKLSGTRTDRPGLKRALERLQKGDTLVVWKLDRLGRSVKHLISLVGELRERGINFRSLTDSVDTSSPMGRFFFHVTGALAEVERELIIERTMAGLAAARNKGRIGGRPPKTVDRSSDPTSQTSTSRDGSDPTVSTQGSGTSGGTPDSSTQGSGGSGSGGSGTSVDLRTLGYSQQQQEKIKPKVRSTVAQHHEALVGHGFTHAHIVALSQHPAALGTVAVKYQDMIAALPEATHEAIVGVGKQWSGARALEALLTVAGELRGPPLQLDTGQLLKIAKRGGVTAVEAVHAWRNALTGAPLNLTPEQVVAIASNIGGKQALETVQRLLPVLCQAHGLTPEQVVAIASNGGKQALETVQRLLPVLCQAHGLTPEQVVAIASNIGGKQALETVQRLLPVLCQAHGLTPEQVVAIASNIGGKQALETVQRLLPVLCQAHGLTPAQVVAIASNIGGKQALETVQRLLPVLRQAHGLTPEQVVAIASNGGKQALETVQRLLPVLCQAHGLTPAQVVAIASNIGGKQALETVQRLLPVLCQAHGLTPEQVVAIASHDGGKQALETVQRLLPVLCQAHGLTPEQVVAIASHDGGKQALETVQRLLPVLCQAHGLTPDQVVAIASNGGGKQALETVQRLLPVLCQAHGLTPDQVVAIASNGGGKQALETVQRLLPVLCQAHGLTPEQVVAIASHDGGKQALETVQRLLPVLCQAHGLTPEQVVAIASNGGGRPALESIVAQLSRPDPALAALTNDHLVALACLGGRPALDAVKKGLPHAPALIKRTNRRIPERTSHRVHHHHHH
Procedure: as §1, with “To test for recombination, E. coli DH5alpha cells were co-transformed with different combinations of TALER expression construct and TALER reporter construct pairs (Tables 6 and 7). The N-TALER expression and reporter constructs were in an approximate 1:1 mass ratio during the transformation. The co-transformed” for “The co-transformed”
The N-TALER expression constructs representing the N-TALER chimeras with varying linker lengths were co-transformed with N-TALER reporter constructs with TALER central sequence lengths of 18, 20, 24, 30, 40, and 50 bp (Table 13). […] Recombination did occur, but was less efficient with the pN-TALER IV-14 (linker length of 71 amino acids) with each of the N-TALER reporters tested.

Binder	activity (sN-TALER V.2) [score]	activity (pN-TALER IV-12) [score]
B1	1	
B2		1

— patent US20140193915, “COMPOSITIONS AND METHODS FOR CUSTOM SITE-SPECIFIC DNA RECOMBINASES” (Monsanto Technology, LLC, published 2014)
